Experimental data taken from the supplement of paper PMC7877785.
± gives the uncertainty stated by the source.

Test: self-splicing fitness, log relative to wild type (ln ratio); higher = more splicing; Tetrahymena group I intron in knt gene, E. coli kanamycin selection, DiMSum; sequences stand for … in CUCUCU…GGAGGGAAAAGUUAUCAGGCAUGCACCUGGUAGCUAGUCUUUAAACCAAUAGAUUGCAUCGGUUUAAAAGGCAAGACCGUCAAAUUGCGGGAAAGGGGUCAACAGCCGUUCAGUACCAAGUCUCAGGGGAAACUUUGAGAUGGCCUUGCAAAGGGUAUGGUAAUAAGCUGACGGACAUGGUCCUAACCACGCAGCCAAGUCCUAAGUCAACAGAUCUUCUGUUGAUAUGGAUGCAGUUCACAGACUAAAUGUCGGUCGGGGAAGAUGUAUUCUUCUCAUAAGAUAUAGUCGGACCUCUCCUUAAUGGGAGCUAGCGGAUGAAGUGAUGCAACACUGGAGCCGCUGGGAACUAAUUUGUAUGCGAAAGUAUAUUGAUUAGUUUUGGAGUACUCGUGGUCG
Outline: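 Six replicate transformations of E. coli BL21(DE3) with a pET-22b(+) library were grown overnight at 37°C or 30°C. The library randomised all eight P1ex-region intron nucleotides, the intron lying in the knt kanamycin-resistance gene, and plates were LB agar with or without 25 μg/mL kanamycin plus 100 μg/mL carbenicillin, 50 μM IPTG and 0.2% rhamnose. Pooled colonies were amplicon-sequenced on an Illumina HiSeq 2500, and fitness is the DiMSum error-weighted combination of wild-type-normalised replicate fold changes, kanamycin versus none.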

Q: With GAAAAGCAAUAUUACGAAGC as the sequence, how does the “self-splicing fitness (ln)” value (30 °C) read?
A: -3.19 ± 0.22

Q: What about the “self-splicing fitness (ln)” value (37 °C) of the same sequence?
A: -2.65 ± 0.28

Q: What does the source list for CACGAGCAAUAUUACGCGGU?
A: self-splicing fitness (ln) (30 °C): -3.13 ± 0.15; self-splicing fitness (ln) (37 °C): -3.5 ± 0.24

Q: Which results are given for UGUGAGCAAUAUUACGGCUA?
A: self-splicing fitness (ln) (30 °C): -0.645 ± 0.13; self-splicing fitness (ln) (37 °C): -0.508 ± 0.15

Q: What does the source list for AUGAAGCAAUAUUACGGUCA?
A: self-splicing fitness (ln) (30 °C): 0.145 ± 0.07; self-splicing fitness (ln) (37 °C): 0.605 ± 0.1

Q: For ACGUAGCAAUAUUACGUCAC, which “self-splicing fitness (ln)” value (37 °C) is on record?
A: -1.67 ± 0.4

Q: Which results are given for GGCGAGCAAUAUUACGGCUG?
A: self-splicing fitness (ln) (30 °C): -0.315 ± 0.15; self-splicing fitness (ln) (37 °C): -0.389 ± 0.28

Q: For UGCGAGCAAUAUUACGUAGG, which “self-splicing fitness (ln)” value (30 °C) is on record?
A: -3.81 ± 0.18

Q: And the “self-splicing fitness (ln)” value (37 °C)?
A: -2.76 ± 0.21

Q: With AUAAAGCAAUAUUACGAUCA as the sequence, how does the “self-splicing fitness (ln)” value (30 °C) read?
A: 0.0672 ± 0.054

Q: And the “self-splicing fitness (ln)” value (37 °C)?
A: 0.203 ± 0.077

Q: Which “self-splicing fitness (ln)” value (30 °C) does the source give for CAAAAGCAAUAUUACGGCGG here?
A: -0.363 ± 0.061

Q: And the “self-splicing fitness (ln)” value (37 °C)?
A: -0.395 ± 0.079

Q: With UGACAGCAAUAUUACGUCGG as the sequence, how does the “self-splicing fitness (ln)” value (30 °C) read?
A: -1.72 ± 0.094

Q: And the “self-splicing fitness (ln)” value (37 °C)?
A: -0.734 ± 0.11

Q: For AACUAGCAAUAUUACGAAAU, which “self-splicing fitness (ln)” value (30 °C) is on record?
A: -2.01 ± 0.09

Q: And the “self-splicing fitness (ln)” value (37 °C)?
A: -0.94 ± 0.1

Q: With CUAAAGCAAUAUUACGUUGC as the sequence, how does the “self-splicing fitness (ln)” value (30 °C) read?
A: -3.49 ± 0.18

Q: And the “self-splicing fitness (ln)” value (37 °C)?
A: -2.45 ± 0.22

Q: Which results are given for CUAGAGCAAUAUUACGAGGG?
A: self-splicing fitness (ln) (30 °C): -2.12 ± 0.19; self-splicing fitness (ln) (37 °C): -1.73 ± 0.33

Q: With UAAAAGCAAUAUUACGAAAG as the sequence, how does the “self-splicing fitness (ln)” value (30 °C) read?
A: -2.21 ± 0.17

Q: And the “self-splicing fitness (ln)” value (37 °C)?
A: -1.56 ± 0.16

Q: With UUUGAGCAAUAUUACGCGUC as the sequence, how does the “self-splicing fitness (ln)” value (30 °C) read?
A: -2.03 ± 0.22

Q: What about the “self-splicing fitness (ln)” value (37 °C) of the same sequence?
A: -2.49 ± 0.26

Q: With UAAUAGCAAUAUUACGUGUG as the sequence, how does the “self-splicing fitness (ln)” value (30 °C) read?
A: -1.6 ± 0.073

Q: What about the “self-splicing fitness (ln)” value (37 °C) of the same sequence?
A: -0.917 ± 0.074

Q: With UGACAGCAAUAUUACGGUUU as the sequence, how does the “self-splicing fitness (ln)” value (30 °C) read?
A: -1.07 ± 0.059

Q: What about the “self-splicing fitness (ln)” value (37 °C) of the same sequence?
A: -0.226 ± 0.073

Q: With CACAAGCAAUAUUACGUAGA as the sequence, how does the “self-splicing fitness (ln)” value (30 °C) read?
A: -1.83 ± 0.081

Q: And the “self-splicing fitness (ln)” value (37 °C)?
A: -1.73 ± 0.11

Q: Which “self-splicing fitness (ln)” value (30 °C) does the source give for GAUCAGCAAUAUUACGUGGG here?
A: -3.21 ± 0.13

Q: What about the “self-splicing fitness (ln)” value (37 °C) of the same sequence?
A: -1.7 ± 0.11

Q: For UCUCAGCAAUAUUACGGAAC, which “self-splicing fitness (ln)” value (30 °C) is on record?
A: -3.48 ± 0.41

Q: Which “self-splicing fitness (ln)” value (30 °C) does the source give for GGUGAGCAAUAUUACGUUCU here?
A: 0.501 ± 0.28

Q: And the “self-splicing fitness (ln)” value (37 °C)?
A: -1.16 ± 0.27

Q: Which “self-splicing fitness (ln)” value (30 °C) does the source give for GAGUAGCAAUAUUACGUUUA here?
A: -3.09 ± 0.25

Q: And the “self-splicing fitness (ln)” value (37 °C)?
A: -1.63 ± 0.19

Q: What does the source list for GACGAGCAAUAUUACGUGAU?
A: self-splicing fitness (ln) (30 °C): -3.53 ± 0.17; self-splicing fitness (ln) (37 °C): -2.6 ± 0.16

Q: With AACAAGCAAUAUUACGUACG as the sequence, how does the “self-splicing fitness (ln)” value (30 °C) read?
A: -1.65 ± 0.082

Q: And the “self-splicing fitness (ln)” value (37 °C)?
A: -0.628 ± 0.094

Q: With UCACAGCAAUAUUACGAAAU as the sequence, how does the “self-splicing fitness (ln)” value (30 °C) read?
A: -3.43 ± 0.37

Q: And the “self-splicing fitness (ln)” value (37 °C)?
A: -0.587 ± 0.16

Q: For UCGUAGCAAUAUUACGAUGU, which “self-splicing fitness (ln)” value (30 °C) is on record?
A: -3.41 ± 0.24

Q: What about the “self-splicing fitness (ln)” value (37 °C) of the same sequence?
A: -2.24 ± 0.2

Q: Which “self-splicing fitness (ln)” value (30 °C) does the source give for GGCGAGCAAUAUUACGCCCA here?
A: -2.15 ± 0.42

Q: And the “self-splicing fitness (ln)” value (37 °C)?
A: -0.478 ± 0.33

Q: Which “self-splicing fitness (ln)” value (30 °C) does the source give for AUGGAGCAAUAUUACGUGUC here?
A: -4.57 ± 0.46

Q: What about the “self-splicing fitness (ln)” value (37 °C) of the same sequence?
A: -2.71 ± 0.28

Q: With AACAAGCAAUAUUACGAAUA as the sequence, how does the “self-splicing fitness (ln)” value (30 °C) read?
A: -1.97 ± 0.1

Q: What about the “self-splicing fitness (ln)” value (37 °C) of the same sequence?
A: -1.24 ± 0.11

Q: What does the source list for UCAAAGCAAUAUUACGGAGG?
A: self-splicing fitness (ln) (30 °C): -3.48 ± 0.28; self-splicing fitness (ln) (37 °C): -1.67 ± 0.21

Q: Which “self-splicing fitness (ln)” value (37 °C) does the source give for CAGCAGCAAUAUUACGAGCC here?
A: -1.48 ± 0.23

Q: With CCGAAGCAAUAUUACGUACU as the sequence, how does the “self-splicing fitness (ln)” value (30 °C) read?
A: -3.91 ± 0.27

Q: And the “self-splicing fitness (ln)” value (37 °C)?
A: -2.39 ± 0.19

Q: With CCACAGCAAUAUUACGUCGA as the sequence, how does the “self-splicing fitness (ln)” value (30 °C) read?
A: -2.93 ± 0.11

Q: And the “self-splicing fitness (ln)” value (37 °C)?
A: -1.47 ± 0.099

Q: With GCCCAGCAAUAUUACGAGAG as the sequence, how does the “self-splicing fitness (ln)” value (30 °C) read?
A: -2.63 ± 0.096

Q: And the “self-splicing fitness (ln)” value (37 °C)?
A: -1.42 ± 0.1

Q: Which “self-splicing fitness (ln)” value (30 °C) does the source give for AAUUAGCAAUAUUACGGUCA here?
A: 0.31 ± 0.12

Q: And the “self-splicing fitness (ln)” value (37 °C)?
A: -0.629 ± 0.098

Q: For AUGAAGCAAUAUUACGGCGA, which “self-splicing fitness (ln)” value (30 °C) is on record?
A: 0.267 ± 0.082

Q: What about the “self-splicing fitness (ln)” value (37 °C) of the same sequence?
A: 0.989 ± 0.11

Q: What does the source list for UUCGAGCAAUAUUACGAUUU?
A: self-splicing fitness (ln) (30 °C): -4.18 ± 0.28; self-splicing fitness (ln) (37 °C): -2.19 ± 0.2

Q: Which results are given for UUGUAGCAAUAUUACGUAUU?
A: self-splicing fitness (ln) (30 °C): -3.29 ± 0.32; self-splicing fitness (ln) (37 °C): -2.45 ± 0.3

Q: With AACAAGCAAUAUUACGGGGU as the sequence, how does the “self-splicing fitness (ln)” value (30 °C) read?
A: -3.36 ± 0.11

Q: What about the “self-splicing fitness (ln)” value (37 °C) of the same sequence?
A: -2.28 ± 0.13

Q: What does the source list for CGGAAGCAAUAUUACGGCAG?
A: self-splicing fitness (ln) (30 °C): -0.0767 ± 0.11; self-splicing fitness (ln) (37 °C): 0.445 ± 0.13

Q: Which “self-splicing fitness (ln)” value (30 °C) does the source give for AGACAGCAAUAUUACGUCCA here?
A: -0.173 ± 0.092

Q: What about the “self-splicing fitness (ln)” value (37 °C) of the same sequence?
A: -0.591 ± 0.14

Q: With UACCAGCAAUAUUACGCUGG as the sequence, how does the “self-splicing fitness (ln)” value (30 °C) read?
A: -3.35 ± 0.18

Q: What about the “self-splicing fitness (ln)” value (37 °C) of the same sequence?
A: -2.77 ± 0.22

Q: For GAGGAGCAAUAUUACGUCGU, which “self-splicing fitness (ln)” value (30 °C) is on record?
A: -0.318 ± 0.28

Q: What about the “self-splicing fitness (ln)” value (37 °C) of the same sequence?
A: -2.14 ± 0.34

Q: Which “self-splicing fitness (ln)” value (30 °C) does the source give for UCUAAGCAAUAUUACGGAGA here?
A: -1.6 ± 0.22

Q: What about the “self-splicing fitness (ln)” value (37 °C) of the same sequence?
A: -1.3 ± 0.18

Q: Which “self-splicing fitness (ln)” value (30 °C) does the source give for CAUAAGCAAUAUUACGUUUG here?
A: -3.3 ± 0.17

Q: And the “self-splicing fitness (ln)” value (37 °C)?
A: -2.46 ± 0.18

Q: With UUCUAGCAAUAUUACGAGGG as the sequence, how does the “self-splicing fitness (ln)” value (37 °C) read?
A: -1.5 ± 0.17

Q: Which “self-splicing fitness (ln)” value (30 °C) does the source give for CGCCAGCAAUAUUACGCUGC here?
A: -4.16 ± 0.41

Q: And the “self-splicing fitness (ln)” value (37 °C)?
A: -2.24 ± 0.28

Q: With UCCAAGCAAUAUUACGCGCG as the sequence, how does the “self-splicing fitness (ln)” value (30 °C) read?
A: -2.95 ± 0.17

Q: And the “self-splicing fitness (ln)” value (37 °C)?
A: -1.49 ± 0.23

Q: Which results are given for GAUCAGCAAUAUUACGACGG?
A: self-splicing fitness (ln) (30 °C): -2.63 ± 0.28; self-splicing fitness (ln) (37 °C): -0.19 ± 0.25
